The values that follow come from patent publication US20240392020A1 (JIANGSU HENGRUI PHARMACEUTICALS, published 2024).

To fix the notation:
T1: B7H3 on the recombinant cell line CT26-B7H3 (UniProt Q5ZPR3 29-534, limits assumed)
T1 construct: whole, on cells
T1 sequence (looked up): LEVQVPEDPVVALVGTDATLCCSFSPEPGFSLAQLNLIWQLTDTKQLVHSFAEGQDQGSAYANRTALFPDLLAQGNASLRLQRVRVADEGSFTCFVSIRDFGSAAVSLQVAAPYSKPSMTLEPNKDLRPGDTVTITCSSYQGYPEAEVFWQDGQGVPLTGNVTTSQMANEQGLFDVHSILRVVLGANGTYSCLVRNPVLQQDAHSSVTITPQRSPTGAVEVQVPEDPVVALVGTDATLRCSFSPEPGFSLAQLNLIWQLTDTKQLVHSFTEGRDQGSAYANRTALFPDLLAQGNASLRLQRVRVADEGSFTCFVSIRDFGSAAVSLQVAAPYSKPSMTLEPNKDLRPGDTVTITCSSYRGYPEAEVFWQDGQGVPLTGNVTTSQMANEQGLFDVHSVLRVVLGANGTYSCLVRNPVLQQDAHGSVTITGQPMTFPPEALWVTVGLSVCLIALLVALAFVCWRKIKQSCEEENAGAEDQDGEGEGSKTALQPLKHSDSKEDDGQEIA

T2: CEA on MKN45 cells (UniProt P06731 35-685)
T2 construct: whole, on cells
T2 sequence (looked up): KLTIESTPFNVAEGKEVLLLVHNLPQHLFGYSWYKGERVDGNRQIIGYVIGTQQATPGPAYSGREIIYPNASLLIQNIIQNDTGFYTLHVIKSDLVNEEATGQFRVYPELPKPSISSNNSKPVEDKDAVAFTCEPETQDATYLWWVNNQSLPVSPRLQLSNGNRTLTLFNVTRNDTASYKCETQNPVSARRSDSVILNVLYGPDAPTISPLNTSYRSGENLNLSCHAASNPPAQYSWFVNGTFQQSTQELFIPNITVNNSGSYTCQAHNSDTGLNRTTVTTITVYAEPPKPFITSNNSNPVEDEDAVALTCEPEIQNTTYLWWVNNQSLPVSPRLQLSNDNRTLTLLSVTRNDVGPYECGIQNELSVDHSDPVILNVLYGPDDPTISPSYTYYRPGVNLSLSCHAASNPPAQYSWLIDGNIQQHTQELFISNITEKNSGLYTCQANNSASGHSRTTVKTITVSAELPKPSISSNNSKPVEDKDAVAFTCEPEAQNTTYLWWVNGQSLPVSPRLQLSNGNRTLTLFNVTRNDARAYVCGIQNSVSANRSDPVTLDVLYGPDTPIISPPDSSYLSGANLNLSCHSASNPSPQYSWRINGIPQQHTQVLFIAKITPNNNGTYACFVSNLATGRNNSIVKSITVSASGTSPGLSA

B1: PL-1 (bispecific antibody, human IgG1, kappa, L234A L235A)
heavy 1: not shown
light 1: DIVLTQSPASLAVSPGQRATITCRASESVSIHGTHLMHWYQQKPGQPPKLLIYAASKLESGVPARFSGSGSGTDFTLTINPVEAEDTANYYCQQSFEDPLTFGQGTKLEIKGGGGSGIPPKIECLPIDISIDEGKVLTVASAFTGEPTPEVTWSTGGRKIHSQEQGRFHIENTDDLTTLIIKDVQKQDGGLYTLTLRNEFGSDSATVNIHIRSI
heavy 2: not shown
light 2: not shown
B2: PL-17 (bispecific antibody, human IgG1, kappa, L234A L235A)
heavy 1: not shown
light 1: B1 light 1 with G112R, G113T, G114V, G115A, L176S, I180T
heavy 2: not shown
light 2: not shown
B3: PL-15 (bispecific antibody, human IgG1, kappa, L234A L235A)
heavy 1: not shown
light 1: B1 light 1 with G112R, G113T, G114V, G115A, V136C, L176S, I180T
heavy 2: not shown
light 2: not shown
B4: PL-18 (bispecific antibody, human IgG1, kappa, L234A L235A)
heavy 1: not shown
light 1: B1 light 1 with G112R, G113T, G114V, G115A, V136C, L176S, I180T
heavy 2: not shown
light 2: not shown
B5: PL-12 (bispecific antibody, human IgG1, kappa, L234A L235A)
heavy 1: not shown
light 1: B1 light 1 with G112R, G113T, G114V, G115A, V136C, L176S, I180T
heavy 2: not shown
light 2: not shown
B6: PL-19 (bispecific antibody, human IgG1, kappa, L234A L235A)
heavy 1: not shown
light 1: B1 light 1 with G112R, G113T, G114V, G115A, A142C, L176S, I180T
heavy 2: not shown
light 2: not shown
B7: PL-13 (bispecific antibody, human IgG1, kappa, L234A L235A)
heavy 1: not shown
light 1: B1 light 1 with G112R, G113T, G114V, G115A, A142C, L176S, I180T
heavy 2: not shown
light 2: not shown
B8: PL-14 (bispecific antibody, human IgG1, kappa, L234A L235A)
heavy 1: not shown
light 1: B1 light 1 with G112R, G113T, G114V, G115A, L176S, I180T
heavy 2: not shown
light 2: not shown
B9: PL-11 (bispecific antibody, human IgG1, kappa, L234A L235A)
heavy 1: not shown
light 1: B1 light 1 with G112R, G113T, G114V, G115A, L176S, I180T
heavy 2: not shown
light 2: not shown
B10: PL-10 (bispecific antibody, human IgG1, kappa, L234A L235A)
heavy 1: not shown
light 1: B1 light 1 with A142C, L176S, I180T
heavy 2: not shown
light 2: not shown
B11: PL-8 (bispecific antibody, human IgG1, kappa, L234A L235A)
heavy 1: not shown
light 1: B1 light 1 with L176S, I180T
heavy 2: not shown
light 2: not shown
B12: PL-2 (bispecific antibody, human IgG1, kappa, L234A L235A)
heavy 1: not shown
light 1: B1 light 1 with L176S, I180T
heavy 2: not shown
light 2: not shown
B13: PL-7 (bispecific antibody, human IgG1, kappa, L234A L235A)
heavy 1: not shown
light 1: B1 light 1 with A142C, L176S, I180T
heavy 2: not shown
light 2: not shown
B14: PL-6 (bispecific antibody, human IgG1, kappa, L234A L235A)
heavy 1: not shown
light 1: B1 light 1 with V136C, L176S, I180T
heavy 2: not shown
light 2: not shown
B15: PL-3 (bispecific antibody, human IgG1, kappa, L234A L235A)
heavy 1: not shown
light 1: B1 light 1 with V136C, L176S, I180T
heavy 2: not shown
light 2: not shown
B16: PL-5 (bispecific antibody, human IgG1, kappa, L234A L235A)
heavy 1: not shown
light 1: B1 light 1 with L176S, I180T
heavy 2: not shown
light 2: not shown
B17: PL-4 (bispecific antibody, human IgG1, kappa, L234A L235A)
heavy 1: not shown
light 1: B1 light 1 with A142C, L176S, I180T
heavy 2: not shown
light 2: not shown
B18: PL-9 (bispecific antibody, human IgG1, kappa, L234A L235A)
heavy 1: not shown
light 1: B1 light 1 with V136C, L176S, I180T
heavy 2: not shown
light 2: not shown
B19: V5 (antibody)
heavy: not shown
light: QIVLTQSPAILSASPGEKVTMTCRASSSVSYMNWYQQKPGSSPKPWIYATSNLASGVPARFSVSVSGTSHSLTISRVEAEDAATYYCQQWSSNPLTFGAGTKLELKGIPPKIEALPSDISIDEGKVLTVACAFTGEPTPEVTWSCGGRKIHSQEQGRFHIENTDDLTTLIIMDVQKQDGGLYTLSLGNEFGSDSATVNIHIRSI
B20: N25 (antibody)
heavy: not shown
light: EIVLTQSPGTLSLSPGERATLSCRASQNINNRFLAWYQQRPGQAPRLLIYAASSRATGVPDRFSGSGSGTDFTLTISRLEAEDFAMYHCQQYGSFPRTFGQGTMVDIKGGGGSGGGGSSGAPRFLTRPKAFVVSVGKDATLSSQIVGNPTPQVSWEKDQQPVAAGARFRLAQDGDLYRLTILDLALGDSGQYVSRARNAIGEAFACVGLQVDAEA
B21: N27 (antibody)
heavy: not shown
light: B20 light
B22: N11 (antibody)
heavy: not shown
light: EIVLTQSPGTLSLSPGERATLSCRASQNINNRFLAWYQQRPGQAPRLLIYAASSRATGVPDRFSGSGSGTDFTLTISRLEAEDFAMYHCQQYGSFPRTFGQGTMVDIKSGAPRFKTRPKAFVVSVGKDATLSSQIVGNPTPQVSWEKDQQPVAAGARFRLAQDGDLYRLKILDLALGDSGQYVSRARNAIGEAFACVGLQVDAEA
B23: N16 (antibody)
heavy: not shown
light: B22 light with K115L, K119L, K170H
B24: N10 (antibody)
heavy: not shown
light: B22 light with K115L, K170T
B25: N12 (antibody)
heavy: not shown
light: B22 light with K170H
B26: N13 (antibody)
heavy: not shown
light: B22 light with K170H
B27: N14 (antibody)
heavy: not shown
light: B22 light with K115L, K119L
B28: N15 (antibody)
heavy: not shown
light: B22 light with K115L, K119L
B29: N17 (antibody)
heavy: not shown
light: EIVLTQSPGTLSLSPGERATLSCRASQNINNRFLAWYQQRPGQAPRLLIYAASSRATGVPDRFSGSGSGTDFTLTISRLEAEDFAMYHCQQYGSFPRTFGQGTMVDIKDQPQFSGAPRFLTRPKAFVVSVGKDATLSSQIVGNPTPQVSWEKDQQPVAAGARFRLAQDGDLYRLTILDLALGDSGQYVSRARNAIGEAFACVGLQVDAEA
B30: N20 (antibody)
heavy: not shown
light: B29 light with L120K, T175K
B31: N26 (antibody)
heavy: not shown
light: B29 light with D109G, Q110G, P111G, Q112G, F113S
B32: N18 (antibody)
heavy: not shown
light: B29 light
B33: N24 (antibody)
heavy: not shown
light: B29 light with L120R, T175H
B34: N19 (antibody)
heavy: not shown
light: B29 light with L120K, T175K
B35: N21 (antibody)
heavy: not shown
light: B29 light with L120K, T175H
B36: N23 (antibody)
heavy: not shown
light: B29 light with L120R, T175H
B37: N22 (antibody)
heavy: not shown
light: B29 light with L120R, T175K

Positions count from the first letter of the chain named.

In the first experiment the target is T3, hPDL1 antigen (human, UniProt Q9NZQ7 19-239, limits assumed).
T3 construct: bought
T3 sequence (Q9NZQ7 19-239 limits assumed): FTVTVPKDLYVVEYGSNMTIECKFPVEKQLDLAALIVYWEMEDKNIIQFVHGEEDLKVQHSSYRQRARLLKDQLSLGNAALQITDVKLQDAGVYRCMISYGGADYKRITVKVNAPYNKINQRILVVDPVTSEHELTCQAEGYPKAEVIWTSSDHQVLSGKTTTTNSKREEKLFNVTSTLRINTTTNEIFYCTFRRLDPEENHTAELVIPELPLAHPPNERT
The experiment can be described thus: ELISA. Background: ELISA stands for enzyme-linked immunosorbent assay.
Description: For an antibody targeting a soluble protein, the binding activity of the antibody against the soluble protein was detected by ELISA. […] After the blocking was completed, the blocking solution was discarded; and the plate was washed 3 times with a PBST buffer (pH 7.4, PBS containing 0.1% tween-20). 100 μL of the antibody solution diluted in a gradient was added to each well, and the mixture was incubated at 37° C. for 1 h. After the incubation was completed, the plate was washed 3 times with PBST. […] The plate was washed 3 times with PBST. […] The reaction was stopped by adding 50 μL of 1 M H₂SO₄ to each well. The absorbance values at 450 nm were read on a microplate reader, the binding curves of the antibodies to an antigen were fitted with software, and the EC₅₀ values were calculated.
With B1, the midpoint of the response, the EC50, lay at 1.6 nM. For the molecule B2, the 50% effective concentration (EC50) was 1.4 nM.

B3 registered a concentration giving a half-maximal response (EC50) of 1.4 nM. As to B4, the EC50 is 1.6 nM. Take B5: the EC50 came out at 0.5 nM. B6 yielded an EC50 of 1.6 nM.

B7: the midpoint of the response, the EC50, lay at 0.5 nM. Molecule B8 gave a half-maximal effective concentration (EC50) of 1.3 nM.

With B9, the midpoint of the response, the EC50, lay at 0.6 nM. For the molecule B10, the response was half-maximal at 0.6 nM (EC50). With B11, the concentration giving a half-maximal response (EC50) was determined as 1.4 nM. In turn, B12 showed a concentration for a half-maximal effect (EC50) of 0.5 nM. For the molecule B13, the half-maximal effective concentration (EC50) was found to be 0.5 nM. For B14, the response was half-maximal at 0.8 nM (EC50).

For the molecule B15, the EC50 was 0.6 nM.

Turning to B16, the EC50 was 0.7 nM.

As for B17, a half-maximal effect (EC50) was put at 0.7 nM. The molecule B18 registered an EC50 of 0.6 nM.

In the next experiment the target is T1, B7H3 on the recombinant cell line …. The experiment can be described thus: FACS, CT26-B7H3 cells.
Take B19: the half-maximal effective concentration (EC50) was 3.2 nM.

The target in another experiment is T2, CEA on MKN45 cells. Description: FACS, MKN45 cells. (In flow cytometry, cells or beads pass a laser one at a time.)
Molecule B20 came in with an EC50 of 0.62 nM. In turn, B21 displayed an EC50 of 0.67 nM.

B22 gave an EC50 of 5 nM. The same measure, in the same setting: to B23 belongs 3.4 nM; to B24, 3 nM; to B25, 5.3 nM. B26: a half-maximal effect (EC50) was put at 2.9 nM. The molecule B27 displayed an EC50 of 1.9 nM. The molecule B28 yielded a concentration giving a half-maximal response (EC50) of 2.6 nM. The molecule B29 had an EC50 of 2.2 nM. Same read-out and setting: the same measure for B30: 2.8 nM; for B31: 0.84 nM.

Molecule B32 displayed an EC50 of 3.2 nM. B33: it took 6.7 nM to reach a half-maximal effect (EC50). B34 came in with an EC50 of 4.3 nM. The molecule B35 had an EC50 of 5.2 nM. The molecule B36 came in with a concentration giving a half-maximal response (EC50) of 9.4 nM. As to B37, the EC50 worked out at 4.5 nM.

As a reminder, the EC50 is the concentration needed to bring the measured effect to its halfway point.
